From the nanobody polyreactivity screen of Harvey et al. (2022)

Experiment: yeast display, Sf9 membrane polyspecificity reagent, FACS + sequencing; frameworks hold sequencing errors
How it was run: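 Nanobodies came from a synthetic yeast display library in Saccharomyces cerevisiae BJ5465, induced with galactose for 36–48 hours and stained for 1 hour at 4 °C with 10% biotinylated, detergent-solubilized Sf9 membrane reagent. Cells were enriched on streptavidin microbeads and then FACS-sorted, with low and high (top ~1%) gates set on anti-HA fluorescence for expression and streptavidin fluorescence for reagent binding. Each polyreactivity label reflects the gate a clone came from. Genes were amplified by colony PCR, sequenced by MiSeq 2 × 250 and filtered by CDR length.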

Sequence	polyreactivity (PSR sort gate)
QVQLVESGGGLVQAGGSLRLSCAASGFTFKSYAMGWYRQAPGKERELVAAISRGTSTKYADSVKGRFTISRDNAKNTVYLQMNSLKPEDTAVYYCAALFPTSDLRLRYYRYDYWGQGTQVTVSS	low polyreactivity
QVQLVESGGGLVQAGGSLRLSCAASGFTFKSYGMGWYRQAPGKERELVAAISKSGGRTYYADSVKGRFTISRDNAKNTVYLQMNSLKPEDTAVYYCAARVYGVDGYGYWGQGTQVTVSS	high polyreactivity
QVQLVESGGGLVQAGGSLRLSCAASGFTFKYTDMGWYRQAPGKERELVAAINWRGGSTYYADSLKGRFTISRDNAKNTVYLQMNSLKPEDTAFYYCNLVYRPSRYDYWGQGTQVTVSS	high polyreactivity
QVQLVESGGGLVQAGGSLRLSCAASGFTFKYYSMGRYRQAPGKERELVAAISRGGRTNYADSVKGRFTISRDNAKNTVYLQMNSLKPEDTAVYYCAADGIYALFFTSGGIWFDYWGEGTQVTVSS	low polyreactivity
QVQLVESGGGLVQAGGSLRLSCAASGFTFKYYTMGWYRHAPGKETELDAVITRSGGSTYADSVKGRFTISRDNAKNTVYLQMNSLKPVDTAVYYCAKGAAGINLVRHDYWGQVTQVTVSS	high polyreactivity
QVQLVESGGGLVQAGGSLRLSCAASGFTFKYYTMGWYRQAPGKERELVAAISKSGDITYYADSVKGRFTISRDNAKNTVYLQMNSLKPEDTAVYYCAAVGRVSYNRFDYWGQGTQVTVSS	high polyreactivity
QVQLVESGGGLVQAGGSLRLSCAASGFTFKYYTMGWYRQAPGKERELVAAISSAASTNYADSVKGRFTISRDNAKNTVYLQMNSLKPEDTAVYYCNADITGWARIRYQWIRQYDYWGQGTQVTVSS	high polyreactivity
QVQLVESGGGLVQAGGSLRLSCAASGFTFLAYAMGWYRQAPGKERELGAAISKSGGSTYYADSVKGRFTISRDNAKITVYLQMNSLKPEDTAVYYCNAGRRIKFYGSYDYWGQGTQVTVSS	high polyreactivity
QVQLVESGGGLVQAGGSLRLSCAASGFTFLAYAMGWYRQAPGKERELVAAISRSGGRTYYADSVKGRFTISRDNAKNTVYLQMNSLNPEDTAVYYCAAPPRANLFDYWGQGTQVTVSS	high polyreactivity
QVQLVESGGGLVQAGGSLRLSCAASGFTFLFYAKGWYRHAPGKEMELVAAISWSGDTTYYADSVKGRFTISLDNSKNTVYLQMNSLKPEDTAVYYCNAESNIFGYDYWGQGTQVTVTS	high polyreactivity
QVQLVESGGGLVQAGGSLRLSCAASGFTFLINAMGWYRQAPGKERELVAAIRSGGSTNYADSVKGRFTISRDNAKNTVYFQMNSLKPEDTAVYYCAARRYYPYKYRYGYWGQGTQVTVSS	high polyreactivity
QVQLVESGGGLVQAGGSLRLSCAASGFTFLIYAMGWYRQAPGKERELVAAITWRGSGTYYADSVKGRFTISRDNAKNTVYLQMNSLNPEDTAVFYCGARTARRTYDYWGQGTQVTVSS	low polyreactivity
QVQLVESGGGLVQAGGSLRLSCAASGFTFLKYAMGWYIQAPGKERELVARITSGGRTYYADSVKGRFTISRDNAKNTVYLQMNSLKPEDTAVYYCNAVKSYASLYAGFYYWGQGTQVTVSS	high polyreactivity
QVQLVESGGGLVQAGGSLRLSCAASGFTFLNYAMGWYRQAPGKERELVAAISFSTGRTYYADSVKGRFTISRDNAKNTVYLQMNSLKPEDTAVYYCYVLHRSDSGYYYRYDYWGQVTQVTVSS	high polyreactivity
QVQLVESGGGLVQAGGSLRLSCAASGFTFLRYALGWYRQAPGKERELVAAISTSGGSTSYADSVKGRFTITRDNAKNTVYLQMNSLKPEDTAVYYCNAVLYKVSISEYDYWGQGTQVTVSS	high polyreactivity
QVQLVESGGGLVQAGGSLRLSCAASGFTFLRYAMGWYRQAPGKERELVAGITSRGASTYYADSVKGRFTISRDNAKTTVYLQINSLKPEDTAVYYCAADGSHTRYRYDYWGQGTQVTVSS	high polyreactivity
QVQLVESGGGLVQAGGSLRLSCAASGFTFLSYTMGWYRQAPGKERELVASITASGTRTYYADSVKGRFTISRDNAKNTVYLQMNSLKPEDTAVYYCNRVGFDYWGQGTQVTVSS	low polyreactivity
QVQLVESGGGLVQAGGSLRLSCAASGFTFLSYTMGWYSQAPGKERELVASITASGTRTYYADSVKGRFIISRDNAKNTVYLQMNRLKPEDTAVYYFAARWISVWSEGAEHDYWGQGTQVTVSS	low polyreactivity
QVQLVESGGGLVQAGGSLRLSCAASGFTFLYNAMGWYRQAPGKERELVAAIDSGGMTNYADSVKGRFTISRDNAKNTVYLQMKSLKPEDTAVYYCAARFTQYITSDDGHYYYWGQGTQVTVSS	low polyreactivity
QVQLVESGGGLVQAGGSLRLSCAASGFTFLYNAMGWYRQAPVKERELVASINSGGSTNYADSVKGRFTISRDNAKNTVYLQMNSLKPEDTAVYYCNAKRHVRKGDYWGLGTQVTVSS	low polyreactivity
QVQLVESGGGLVQAGGSLRLSCAASGFTFLYNVMGWYRQAPGKERELVAAISQSGTDTYYADSVKGRFTISRDNAKNTVYLQKNSLKPEDTAVYYCATEYYSQPRDDYWGQGTQVTVSS	low polyreactivity
QVQLVESGGGLVQAGGSLRLSCAASGFTFLYYDMGWYRQAPGKERELVAAITNDDSTYYADSVKGRFTISRDNAKNTVYLQMNSLKPEDTAVYYCAADSVYGSDEYWGQGTQVTVSS	high polyreactivity
